Consider one substance from patent US20210401961A1.

In this assay the target is HB-EGF receptor (UniProt Q99075). The experiment in a line: cell-based or functional assay.
UniProt Q99075, sequence (Q99075 63-148 limits assumed): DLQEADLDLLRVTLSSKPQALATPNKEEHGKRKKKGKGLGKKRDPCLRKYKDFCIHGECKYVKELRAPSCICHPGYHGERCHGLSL

“CRM197-Alexa488 (from UniProt P00587 26-560)” gave a labelling of OV90 tumor cells with CRM197-Alexa488 after 24 hours (flow cytometry, 10 µg/mL) of 98.2%; a percentage of CRM197-Alexa488 uptake by OV90 tumor cells after 4 hours (flow cytometry, 10 µg/mL) of 82%; a percentage of OV90 tumor cells with CRM197-Alexa488 signal after 4 hours with trypan blue quenching (intracellular) of 72.7%; a percentage of OV90 tumor cells with CRM197-Alexa488 signal after 24 hours with trypan blue quenching (intracellular) of 97.6%.
